We go through one molecule from patent US20220169695A1 (published 2022).

In this assay the target is T1, NY-ESO-1 peptide on HLA-C*03:04 (human).
T1 peptide: LAMPFATPM
Nature of the assay: multimer staining. From the text:
FIGS. 4A-4I are graphical representations of positive staining of Jurkat 76/CD8 cells transduced with C*03:04/NY-ESO-1₉₂₋₁₀₀ TCR genes with a cognate multimer. Jurkat 76/CD8 cells transduced with the C*03:04/NY-ESO-1₉₂₋₁₀₀ TCR (FIGS. 4B, 4E, and 4H) were stained with the C*03:04/NY-ESO-1₉₂₋₁₀₀ multimer (FIG. 4B). The C*03:04/HIV gag₁₆₄₋₁₇₂ multimer (FIGS. 4D, 4E, and 4F), C*07:02/MAGE-A1₂₈₉₋₂₉₇ TCR (clone CL2; FIGS. 4C, 4F, and 4I), and an unexchanged multimer (FIGS. 4G, 4H, and 4I) were employed as controls, as well as Jurkat 76/CD8 not transduced with a TCR (FIGS. 4A, 4D, and 4G). The percentage of multimer⁺ CD8⁺ cells is shown.
T cells (1×10⁵) were incubated for 30 minutes at 37° C. in the presence of 50 nM dasatinib (LC laboratories). The cells were then washed and incubated with 5-10 μg/ml of multimer for 30 minutes at room temperature, and R-phycoerythrin-conjugated AffiniPure Fab fragment goat anti-mouse IgG1 (Jackson ImmunoResearch Laboratories) was added for 15 minutes at 4° C. Next, the cells were washed three times and costained with an anti-CD8 mAb for 15 minutes at 4° C. Dead cells were finally discriminated using the LIVE/DEAD Fixable Dead Cell Stain kit.

B1: C*03:04/NY-ESO-1 92-100 TCR (TCR, V domains shown)
Valpha: AQSVTQPDIHITVSEGASLELRCNYSYGATPYLFWYVQSPGQGLQLLLKYFSGDTLVQGIKGFEAEFKRSQSSFNLRKPSVHWSDAAEYFCAGMDSNYQLIWGAGTKLIIKP
Vbeta: NAGVTQTPKFQVLKTGQSMTLQCAQDMNHNSMYWYRQDPGMGLRLIYYSASEGTTDKGEVPNGYNVSRLNKREFSLRLESAAPSQTSVYFCASSLPLGYEQYFGPGTRLTVT
Consider B1, for which the binding result is given as “recognises”.
